According to US6919086B1, “Graminae pollen allergen mutants for specific immunotherapy, and production and use of the same” (Merck Patent Gesellschaft mit, priority 1997, dated 2005):
“Also recorded” adds a separate entry of the source. Read-outs that look alike come from different tables or passages of the source.

How the values were obtained:
[1] = test system: IgE antibodies of allergic patients; test: EAST inhibition test (IgE reactivity / allergenicity); type: binding, human; conditions: for IC50: read-out: Inhibition value 50% (concentration of the inhibitor at 50% inhibition); for Allergenic potency (Prel) 25%: relative to native Phl p 5b at 25% inhibition; for Allergenic potency (Prel) 50%: relative to native Phl p 5b at 50% inhibition
Procedure: The effects of the induced mutations on the allergenicity, i.e. the ability to bind to the IgE antibodies of allergic patients, of the modified recombinant allergens is determined qualitatively and quantitatively by means of the EAST inhibition test. […] The extent of the immunochemical relatedness (cross reactivity) can also be quantified. This EAST inhibition test only takes the reaction with IgE antibodies into account.
The binding of the allergens by the IgE antibodies is the basic prerequisite for the allergen-specific activation of the effector cells (mast cells, basophils, inter alia) in type I allergy. The allergen-specific inhibition of the enzyme/allergen sorbent test (EAST) is the best means for qualitatively and quantitatively recording the binding of the allergens to IgE anti-bodies. The EAST inhibition test is carried out as follows. Microtitre plates are coated with allergen (natural or recombinant Ph1 p 5 or Ph1 p 5b) (1 μg/ml). After the unbound allergen molecules have been removed by washing, non-specific plastic binding sites are blocked with bovine serum albumin (0.5%). […] from allergic patients, as a representative pool of 10-30 donors or as an individual serum, is incubated, in a suitable dilution, with the allergen-coated microtritre plates. The bound allergen-specific IgE antibodies are quantified using enzyme-coupled anti-IgE antibodies (e.g. alk. phosphatase-a-IgE antibodies). This binding is inhibited by soluble allergen or the substance to be tested (allergen mutants) in dependence on the concentration. The inhibition curve obtained with the purified natural allergen Ph1 p 5b is used as the reference.

[2] = target: IgE antibodies of the allergic patient serum pool We 6/97; test: EAST inhibition, serum pool We 6/97
[3] = test system: Phl p 5b-reactive T cell lines (TCLs) from allergic patients; test: Proliferative reaction of Phl p 5b-reactive oligoclonal T cell lines ([3H]-thymidine incorporation); type: cell-based, human
Procedure: In the second phase, oligoclonal T cell lines, which have been established by repeated stimulation with the relevant allergens, are employed for the testing. Once again, only those modified recombinant allergens which at least give rise to a stimulation index (SI) of 50% of the SI of the wild type are taken into consideration.
40 ml of heparinized blood were obtained from each patient. Peripheral mononuclear cells (PBMC) were then isolated from this blood sample by means of the customary method using density gradient centrifugation. Analogous cell isolations were carried out at a later stage when it was necessary to obtain irradiated autologous antigen-presenting cells (APC) for characterizing the TCL and TCC further. After the PBMC had been counted, TCL which reacted to group 5 allergens in vitro were established as follows and as has already been described in detail elsewhere (Lit. 1): in each well of 24-well microculture plates, from 1.5 to 2.0×10^6 PBMC in 1 ml of culture medium (UltraCulture) were stimulated for 7 days in the added presence of natural Phl p5 allergens (in each case 10 μg/well) which had been purified by immunoaffinity chromatography. A total of from 8 to 10 of these cultures were set up. The isolation of Phl p5 by means of immunoaffinity chromatography has been described in detail (Lit. 2). At the end of the 7 days of culture, IL-2 (from 10 to 20 IU/well) was added to the cell cultures for a further 5 to 7 days. All the individual cultures were then pooled and the T cell blasts were enriched by means of density gradient centrifugation; the TCL which were obtained were then tested in a specific lymphocyte proliferation test (see Lit. 1 as well). For this, 2×10^4/ml TCL blasts were in each case cultured with 5×10^4/ml irradiated autologous APCs in triplicate samples in 96-well microculture plates. 10-20 μg of Phl p5 allergen were added as the specific antigen stimulus. After 56 hours of incubation, ^3H-labelled thymidine (1 μCi/well) was pipetted into the microcultures. After a further 16 hours, the radioactivity which had been incorporated into the proliferating T cell blasts was measured in a beta counter (Matrix 96). The results were calculated, as the arithmetic mean of the multiple samples, in counts per minute (cpm). The criterion for the quality of the TCL was the stimulation index, which was obtained by relating the cpm values with Phl p5 addition to those without Phl p5 addition.
The oligoclonal T cell lines (TCLs) from 8 patients who were allergic to grass pollen (see Ex. 1) were established by repeated activation with natural Ph1 p 5b (a+b) or recombinant rPh1 p 5b or 5a+5b.
The proliferative reaction of these TCLs was tested using the rPh1 p 5b mutants (FIG. 10).

[4] = target: IgE antibodies of the allergic patient serum pool Bor 18/100 (20 donors); test: EAST inhibition, serum pool Bor 18/100
[5] = target: IgE antibodies of the individual allergic patient serum II/12; test: EAST inhibition, individual serum II/12
[6] = target: IgE antibodies of the individual allergic patient serum II/17; test: EAST inhibition, individual serum II/17
[7] = target: IgE antibodies of the individual allergic patient serum II/3; test: EAST inhibition, individual serum II/3
[8] = allergic patient serum pool Bor 18/100
[9] = allergic patient serum pool We 6/97
[10] = individual allergic patient serum II/3
[11] = individual allergic patient serum II/12
[12] = individual allergic patient serum II/17
[13] = primary stimulator n Phl p 5, secondary activator 0.3 μM
[14] = primary stimulator r Phl p 5b, secondary activator 0.3 μM

B1: rPhl p 5b deletion mutant DM3 (deletion A154-T177, A220T) (protein)
chain: ADAGYAPATPAAAGAAAGKATTEEQKLIEDINVGFKAAVAAAASVPAADKFKTFEAAFTSSSKAAAAKAPGLVPKLDAAYSVAYKAAVGATPEAKFDSFVASLTEALRVIAGALEVHAVKPVTEEPGMAKIPAGELQIIDKIDAAFKVAATAAGGAYDTYKCIPSLEAAVKQAYAATVAAAPQVKYAVFEAALTKTITAMSEVQKVSQPATGAATVAAGAATTAAGAASGAATVAAGGYKV
Allergenicity / IgE reactivity, overall assessment (in words) ([1]; all serum pools and individual sera, Prel values): marked reduction in allergenicity; also recorded: greatly reduced, it is still detectable | Inhibition value 25% (concentration of the inhibitor at 25% inhibition) [1, 8]: 1.2e-09 mol/L | IC50 [1, 8]: 4.1 µM | Inhibition value 25% (concentration of the inhibitor at 25% inhibition) [1, 9]: 5.1e-09 mol/L | IC50 [1, 9]: 0.029 µM | Inhibition value 25% (concentration of the inhibitor at 25% inhibition) [1, 10]: 1.1e-06 mol/L | IC50 [1, 10]: 32000 µM | Inhibition value 25% (concentration of the inhibitor at 25% inhibition) [1, 11]: 4.5e-09 mol/L | IC50 [1, 11]: 100 µM | Inhibition value 25% (concentration of the inhibitor at 25% inhibition) [1, 12]: 5.6e-09 mol/L | IC50 [1, 12]: 0.05 µM | Allergenic potency (Prel) 25% ([1]; individual serum II/3): 0.0004 | Allergenic potency (Prel) 25% ([1]; individual serum II/12): 0.012 | Allergenic potency (Prel) 25% ([1]; individual serum II/17): 0.038 | Allergenic potency (Prel) 25% ([1]; serum pool Bor 18/100): 0.028 | Allergenic potency (Prel) 25% ([1]; serum pool We 6/97): 0.099 | Allergenic potency (Prel) 50% ([1]; individual serum II/3): 1.8 × 10^−7 | Allergenic potency (Prel) 50% ([1]; individual serum II/12): 5.7 × 10^−5 | Allergenic potency (Prel) 50% ([1]; individual serum II/17): 0.0005 | Allergenic potency (Prel) 50% ([1]; serum pool Bor 18/100): 0.0001 | Allergenic potency (Prel) 50% ([1]; serum pool We 6/97): 0.0020 | EAST inhibition curve / inhibitory effect (in words) ([1]; serum pool Bor 18/100 (20 donors), FIG. 1): markedly decreased inhibitory effect | Allergenicity from EAST inhibition curves (in words) ([1]; serum pool We 6/97 and individual sera II3, II12, II17, FIGS. 2-5): greatly reduced allergenicity | IC50 [2]: 0.029 µM | allergenic potency (Prel) at 25% inhibition (relative to native Phl p 5b) [2]: 0.099 | allergenic potency (Prel) at 50% inhibition (relative to native Phl p 5b) [2]: 0.002 | inhibition value (inhibitor concentration at 25% inhibition) [2]: 5.1e-09 mol/L | Proliferative reaction of TCLs (in words) ([3]; TCLs from 8 patients allergic to grass pollen): strong specific stimulation with most of the TCLs | Incorporation of [3H]-thymidine into TCL 2 Eic (stimulation index class) [3, 13]: + (1-2 (+)) | Incorporation of [3H]-thymidine into TCL 4 Mer (stimulation index class) [3, 13]: ++ (5-10 (++)) | Incorporation of [3H]-thymidine into TCL 5 17.4 (stimulation index class) ([3]; primary stimulator r Phl p 5, secondary activator 0.3 μM): ++ (5-10 (++)) | Incorporation of [3H]-thymidine into TCL 6 Mah (stimulation index class) ([3]; primary stimulator r Phl p 5a, r Phl p 5b, secondary activator 0.3 μM): +++ (>10 (+++)) | Incorporation of [3H]-thymidine into TCL 7 19.2 (stimulation index class) [3, 14]: +++ (>10 (+++)) | Incorporation of [3H]-thymidine into TCL 8 20.1 (stimulation index class) [3, 14]: +++ (>10 (+++)) | IC50 [4]: 4.1 µM | allergenic potency (Prel) at 25% inhibition (relative to native Phl p 5b) [4]: 0.028 | allergenic potency (Prel) at 50% inhibition (relative to native Phl p 5b) [4]: 0.0001 | inhibition value (inhibitor concentration at 25% inhibition) [4]: 1.2e-09 mol/L | IC50 [5]: 100 µM | allergenic potency (Prel) at 25% inhibition (relative to native Phl p 5b) [5]: 0.012 | allergenic potency (Prel) at 50% inhibition (relative to native Phl p 5b) [5]: 5.7e-05 | inhibition value (inhibitor concentration at 25% inhibition) [5]: 4.5e-09 mol/L | IC50 [6]: 0.05 µM | allergenic potency (Prel) at 25% inhibition (relative to native Phl p 5b) [6]: 0.038 | allergenic potency (Prel) at 50% inhibition (relative to native Phl p 5b) [6]: 0.0005 | inhibition value (inhibitor concentration at 25% inhibition) [6]: 5.6e-09 mol/L | IC50 [7]: 32000 µM | allergenic potency (Prel) at 25% inhibition (relative to native Phl p 5b) [7]: 0.0004 | allergenic potency (Prel) at 50% inhibition (relative to native Phl p 5b) [7]: 1.8e-07 | inhibition value (inhibitor concentration at 25% inhibition) [7]: 1.1e-06 mol/L
